Two molecules from patent USRE47103 (AGENSYS, dated 2018) can be followed below.

For assay [1], the target named is T1, 158P1D7 protein expressed on the cell surface (human, UniProt Q9H5Y7 27-841).
T1 construct: No signal peptide limits are stated; also called SLITRK6; SLITRK-6
T1 sequence: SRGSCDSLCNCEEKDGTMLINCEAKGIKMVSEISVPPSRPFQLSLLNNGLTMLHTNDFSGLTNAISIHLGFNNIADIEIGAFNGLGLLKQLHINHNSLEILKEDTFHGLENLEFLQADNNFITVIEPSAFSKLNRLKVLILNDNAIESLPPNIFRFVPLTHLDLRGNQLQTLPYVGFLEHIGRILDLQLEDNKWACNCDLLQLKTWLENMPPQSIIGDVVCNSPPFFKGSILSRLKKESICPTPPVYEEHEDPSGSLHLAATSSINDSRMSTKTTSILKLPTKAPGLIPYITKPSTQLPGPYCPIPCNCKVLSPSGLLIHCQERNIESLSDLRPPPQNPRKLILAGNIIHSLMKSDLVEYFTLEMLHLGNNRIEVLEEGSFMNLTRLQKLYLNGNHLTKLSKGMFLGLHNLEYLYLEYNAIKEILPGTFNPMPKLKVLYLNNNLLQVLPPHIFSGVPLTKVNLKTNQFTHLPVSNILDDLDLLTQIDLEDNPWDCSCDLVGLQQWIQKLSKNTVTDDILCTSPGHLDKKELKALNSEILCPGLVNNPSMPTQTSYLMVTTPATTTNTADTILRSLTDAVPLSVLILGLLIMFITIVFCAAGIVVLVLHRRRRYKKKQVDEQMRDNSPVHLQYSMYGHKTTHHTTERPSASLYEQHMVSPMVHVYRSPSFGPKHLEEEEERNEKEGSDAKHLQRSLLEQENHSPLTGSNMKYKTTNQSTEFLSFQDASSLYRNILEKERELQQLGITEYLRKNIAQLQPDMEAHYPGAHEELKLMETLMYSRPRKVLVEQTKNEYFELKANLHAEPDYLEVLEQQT
Briefly: FACS saturation binding on SW780 cells, one site binding fit (Graphpad Prism).

In assay [2] the target is T1, 158P1D7 protein expressed on the cell …. In words: binding to 158P1D7 expressing cells; method not given.

B1: Ha15-10ac12vcMMAE (other)
heavy: QVQLVESGGGVVQPGRSLRLSCAASGFTFSSYGMHWVRQAPGKGLEWVAVIWYDGSNQYYADSVKGRFTISRDNSKNTLFLQMHSLRAEDTAVYYCARGLTSGRYGMDVWGQGTTVTVSSASTKGPSVFPLAPCSRSTSESTAALGCLVKDYFPEPVTVSWNSGALTSGVHTFPAVLQSSGLYSLSSVVTVPSSNFGTQTYTCNVDHKPSNTKVDKTVERKCCVECPPCPAPPVAGPSVFLFPPKPKDTLMISRTPEVTCVVVDVSHEDPEVQFNWYVDGVEVHNAKTKPREEQFNSTFRVVSVLTVVHQDWLNGKEYKCKVSNKGLPAPIEKTISKTKGQPREPQVYTLPPSREEMTKNQVSLTCLVKGFYPSDIAVEWESNGQPENNYKTTPPMLDSDGSFFLYSKLTVDKSRWQQGNVFSCSVMHEALHNHYTQKSLSLSPGK
light: DIVMTQSPLSLPVTPGEPASISCRSSQSLLLSHGFNYLDWYLQKPGQSPQLLIYLGSSRASGVPDRFSGSGSGTDFTLKISRVEAEDVGLYYCMQPLQIPWTFGQGTKVEIKRTVAAPSVFIFPPSDEQLKSGTASVVCLLNNFYPREAKVQWKVDNALQSGNSQESVTEQDSKDSTYSLSSTLTLSKADYEKHKVYACEVTHQGLSSPVTKSFNRGEC
modifications: vcMMAE (Val-Cit linker with monomethyl auristatin E) on cysteine sulfur atoms after partial reduction of disulfides with TCEP; positions not given; vcMMAE (Val-Cit linker with monomethyl auristatin E) on cysteine sulfur atoms after partial reduction of disulfides with TCEP; positions not given; preferred p between 3.5 and 3.7 drugs per antibody
notes: also called 158P1D7 ADC; Ha15ac12vcMMAE
Molecule B1 yielded a Kd in assay [1] of 5 pM.

B2: 158P1D7 MAb Ha15-10ac12 (antibody, human IgG2, kappa, V domains shown)
VH: QVQLVESGGGVVQPGRSLRLSCAASGFTFSSYGMHWVRQAPGKGLEWVAVIWYDGSNQYYADSVKGRFTISRDNSKNTLFLQMHSLRAEDTAVYYCARGLTSGRYGMDVWGQGTTVTVSS
VL: DIVMTQSPLSLPVTPGEPASISCRSSQSLLLSHGFNYLDWYLQKPGQSPQLLIYLGSSRASGVPDRFSGSGSGTDFTLKISRVEAEDVGLYYCMQPLQIPWTFGQGTKVEIKR
notes: Fully human IgG2 kappa antibody from XenoMouse; It was tested both as material purified from the hybridoma and as recombinant material from CHO-K1SV cells; also called Ha15-10ac12 MAb
Take B2: the binding result in assay [2] is recorded as “binds”.

Broadly, the Kd is the equilibrium constant for the complex coming apart. Higher therefore signals lower affinity.
